According to patent publication US20250381223A1 (UTC THERAPEUTICS SHANGHAI, published 2025):

Assays:
[1] = biological target: T1, mesothelin-Fc recombinant protein (human, UniProt Q13421 296-580, limits assumed); assay: flow cytometry, T cells with CAR mRNA, mesothelin-Fc + PE-anti-IgG-Fc; Control 0.97
T1 construct: construct not described; also called Meso-Fc; not shown: Fc part
Description: Mesothelin CAR mRNA obtained in Example 26 above was introduced into A549 tumor cells and T cells by electroporation, and the procedures are as follows: A549 tumor cells and T cells were collected and washed 3 times with the Opti-MEM medium. The cell pellet was resuspended in the Opti-MEM medium and the cell concentration was adjusted to 1×10e7 cells/mL. 10 μg of RNA was aliquoted into 1.5-mL EP tubes, 100 μL of T cells or A549 cells were added, followed by mixing well. 100 μL of cells mixed with RNA were added to the BTX electroporation cuvette and slight tapping was performed to avoid air bubbles. Electroporation was performed using a BTX instrument under the following parameters: for T cells: 500 V voltage, 0.7 ms; for A549 tumor cells: 300 V voltage, 0.5 ms. The cells were then transferred to a pre-warmed medium and cultured at 37° C. The binding of mesothelin CART cells to the mesothelin-Fc recombinant protein was determined by FACS staining. […] T cells without CAR molecules served as the control (“Mock”).

CD40-Fc [2] = biological target: T2, CD40-Fc (human, UniProt P25942); assay: flow cytometry of T cells co-electroporated with 15 µg diabody mRNA and 2 µg M12 CAR mRNA; CD40-Fc + PE-anti-Fc; E1 without mRNA: 0.56
T2 construct: part fused to Fc; staining reagent of the flow cytometry; also called recombinant human CD40-Fc antigen protein

CD40-Fc [3] = biological target: T2, CD40-Fc; assay: flow cytometry of T cells co-electroporated with 15 µg diabody mRNA and 0.5 µg 4D5.BBZ mRNA; CD40-Fc + PE-anti-IgG-Fc; E1 without mRNA: 0.27

T1 sequence (Q13421 other isoform, or with tags, fused parts or gaps limits assumed): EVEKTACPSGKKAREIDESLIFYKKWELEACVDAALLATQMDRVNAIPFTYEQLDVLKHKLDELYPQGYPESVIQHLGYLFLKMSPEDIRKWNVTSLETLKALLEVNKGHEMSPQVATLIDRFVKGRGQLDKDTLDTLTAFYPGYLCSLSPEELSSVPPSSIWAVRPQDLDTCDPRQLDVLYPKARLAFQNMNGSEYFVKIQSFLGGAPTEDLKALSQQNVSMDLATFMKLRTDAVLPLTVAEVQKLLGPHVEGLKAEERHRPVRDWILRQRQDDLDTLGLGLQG

| Binder | percent of cells in the gate [1] [%] | % of cells in the positive gate (CD40-Fc [2]) | % of cells in the positive gate (CD40-Fc [3]) |
| --- | --- | --- | --- |
| anti-mesothelin scFv-M20 (scFv, On mRNA-electroporated T cells as CAR) scFv: AIQMTQSPSSLSASVGNRVTITCRASQGISSAVAWYQQKPGKPPKLLISYASSLESGVPSRFSGSGSGTDFSLTISSLQPEDFATYFCQQFNSYPLTFGGGTKVEIKGGGGSGGGGSGGGGSQVQLVQSGAEVRKPGESLKISCKGSGYSFRDSWIAWVRQMPGQGLEWMGIIFPGDSNPIYSPSFQGQVTISADTSISTTFLQWRSLKASDSAIYYCARHAAWGAGWFDPWGQGTLVTVSS | 75.6 |  |  |
| 4.1 (bispecific antibody, expressed from mRNA in T cells) scFv-G4S-scFv: DIQLTQSPSSLSVSVGDRVTISCRASESVEYYVTSLMQWYQQKPGQAPKLLIFAASNVESGVPSRFSGSGSGTNFTLTISSVQEEDFAMYFCQQSRKVPYTFGGGTKLEIKGGGGSGGGGSGGGGSQVKLQESGPGLVKPSETLSITCTVSGFSLSDYGVHWVRQSPGKGLEWLGVIWAGGGTNYNSALMSRKTISKDNSKSQVFLKMSSLTAADTAVYYCARDKGYSYYYSMDYWGQGTTVTVSSGGGGSQSALTQPPSASGSPGQSVTISCTGTSSDVGAYNFVSWYQQHPGNAPKLIIYDVRKRPSGIPDRFSASKSGNTASLTVSGLQADDEADYYCSSYAGNNNLVFGGGTKLTVLGGGGSGGGGSGGGGSQVQLVQSGAEVKKPGSSVKVSCKASGGTFSSYAISWVRQAPGQGLEWMGMINPSGGTTSYAQKFQGRVTMTRDTSTSTVYMELSSLRPEDTAVYYCARGFRMDQWGQGTLVTVSS |  | 95.8 | 95.3 |
| 4.2 (bispecific antibody, expressed from mRNA in T cells) scFv-G4S-scFv: DIQLTQSPSSLSVSVGDRVTISCRASESVEYYVTSLMQWYQQKPGQAPKLLIFAASNVESGVPSRFSGSGSGTNFTLTISSVQEEDFAMYFCQQSRKVPYTFGGGTKLEIKGGGGSGGGGSGGGGSQVKLQESGPGLVKPSETLSITCTVSGFSLSDYGVHWVRQSPGKGLEWLGVIWAGGGTNYNSALMSRKTISKDNSKSQVFLKMSSLTAADTAVYYCARDKGYSYYYSMDYWGQGTTVTVSSGGGGSQVQLVQSGAEVKKPGSSVKVSCKASGGTFSSYAISWVRQAPGQGLEWMGMINPSGGTTSYAQKFQGRVTMTRDTSTSTVYMELSSLRPEDTAVYYCARGFRMDQWGQGTLVTVSSGGGGSGGGGSGGGGSQSALTQPPSASGSPGQSVTISCTGTSSDVGAYNFVSWYQQHPGNAPKLIIYDVRKRPSGIPDRFSASKSGNTASLTVSGLQADDEADYYCSSYAGNNNLVFGGGTKLTVL |  | 97.7 | 98.2 |
| 4.3 (bispecific antibody, expressed from mRNA in T cells) scFv-G4S-scFv: QVKLQESGPGLVKPSETLSITCTVSGFSLSDYGVHWVRQSPGKGLEWLGVIWAGGGTNYNSALMSRKTISKDNSKSQVFLKMSSLTAADTAVYYCARDKGYSYYYSMDYWGQGTTVTVSSGGGGSGGGGSGGGGSDIQLTQSPSSLSVSVGDRVTISCRASESVEYYVTSLMQWYQQKPGQAPKLLIFAASNVESGVPSRFSGSGSGTNFTLTISSVQEEDFAMYFCQQSRKVPYTFGGGTKLEIKGGGGSQSALTQPPSASGSPGQSVTISCTGTSSDVGAYNFVSWYQQHPGNAPKLIIYDVRKRPSGIPDRFSASKSGNTASLTVSGLQADDEADYYCSSYAGNNNLVFGGGTKLTVLGGGGSGGGGSGGGGSQVQLVQSGAEVKKPGSSVKVSCKASGGTFSSYAISWVRQAPGQGLEWMGMINPSGGTTSYAQKFQGRVTMTRDTSTSTVYMELSSLRPEDTAVYYCARGFRMDQWGQGTLVTVSS |  | 36.3 | 43.5 |
| 4.4 (bispecific antibody, expressed from mRNA in T cells) scFv-G4S-scFv: QVKLQESGPGLVKPSETLSITCTVSGFSLSDYGVHWVRQSPGKGLEWLGVIWAGGGTNYNSALMSRKTISKDNSKSQVFLKMSSLTAADTAVYYCARDKGYSYYYSMDYWGQGTTVTVSSGGGGSGGGGSGGGGSDIQLTQSPSSLSVSVGDRVTISCRASESVEYYVTSLMQWYQQKPGQAPKLLIFAASNVESGVPSRFSGSGSGTNFTLTISSVQEEDFAMYFCQQSRKVPYTFGGGTKLEIKGGGGSQVQLVQSGAEVKKPGSSVKVSCKASGGTFSSYAISWVRQAPGQGLEWMGMINPSGGTTSYAQKFQGRVTMTRDTSTSTVYMELSSLRPEDTAVYYCARGFRMDQWGQGTLVTVSSGGGGSGGGGSGGGGSQSALTQPPSASGSPGQSVTISCTGTSSDVGAYNFVSWYQQHPGNAPKLIIYDVRKRPSGIPDRFSASKSGNTASLTVSGLQADDEADYYCSSYAGNNNLVFGGGTKLTVL |  | 51 | 55.4 |
| 4.5 (bispecific antibody, expressed from mRNA in T cells) scFv-G4S-scFv: QVQLVQSGAEVKKPGSSVKVSCKASGGTFSSYAISWVRQAPGQGLEWMGMINPSGGTTSYAQKFQGRVTMTRDTSTSTVYMELSSLRPEDTAVYYCARGFRMDQWGQGTLVTVSSGGGGSGGGGSGGGGSQSALTQPPSASGSPGQSVTISCTGTSSDVGAYNFVSWYQQHPGNAPKLIIYDVRKRPSGIPDRFSASKSGNTASLTVSGLQADDEADYYCSSYAGNNNLVFGGGTKLTVLGGGGSDIQLTQSPSSLSVSVGDRVTISCRASESVEYYVTSLMQWYQQKPGQAPKLLIFAASNVESGVPSRFSGSGSGTNFTLTISSVQEEDFAMYFCQQSRKVPYTFGGGTKLEIKGGGGSGGGGSGGGGSQVKLQESGPGLVKPSETLSITCTVSGFSLSDYGVHWVRQSPGKGLEWLGVIWAGGGTNYNSALMSRKTISKDNSKSQVFLKMSSLTAADTAVYYCARDKGYSYYYSMDYWGQGTTVTVSS |  | 65 | 72.2 |
| 4.6 (bispecific antibody, expressed from mRNA in T cells) scFv-G4S-scFv: QVQLVQSGAEVKKPGSSVKVSCKASGGTFSSYAISWVRQAPGQGLEWMGMINPSGGTTSYAQKFQGRVTMTRDTSTSTVYMELSSLRPEDTAVYYCARGFRMDQWGQGTLVTVSSGGGGSGGGGSGGGGSQSALTQPPSASGSPGQSVTISCTGTSSDVGAYNFVSWYQQHPGNAPKLIIYDVRKRPSGIPDRFSASKSGNTASLTVSGLQADDEADYYCSSYAGNNNLVFGGGTKLTVLGGGGSQVKLQESGPGLVKPSETLSITCTVSGFSLSDYGVHWVRQSPGKGLEWLGVIWAGGGTNYNSALMSRKTISKDNSKSQVFLKMSSLTAADTAVYYCARDKGYSYYYSMDYWGQGTTVTVSSGGGGSGGGGSGGGGSDIQLTQSPSSLSVSVGDRVTISCRASESVEYYVTSLMQWYQQKPGQAPKLLIFAASNVESGVPSRFSGSGSGTNFTLTISSVQEEDFAMYFCQQSRKVPYTFGGGTKLEIK |  | 97.9 | 98.5 |
| 4.7 (bispecific antibody, expressed from mRNA in T cells) scFv-G4S-scFv: QSALTQPPSASGSPGQSVTISCTGTSSDVGAYNFVSWYQQHPGNAPKLIIYDVRKRPSGIPDRFSASKSGNTASLTVSGLQADDEADYYCSSYAGNNNLVFGGGTKLTVLGGGGSGGGGSGGGGSQVQLVQSGAEVKKPGSSVKVSCKASGGTFSSYAISWVRQAPGQGLEWMGMINPSGGTTSYAQKFQGRVTMTRDTSTSTVYMELSSLRPEDTAVYYCARGFRMDQWGQGTLVTVSSGGGGSQVKLQESGPGLVKPSETLSITCTVSGFSLSDYGVHWVRQSPGKGLEWLGVIWAGGGTNYNSALMSRKTISKDNSKSQVFLKMSSLTAADTAVYYCARDKGYSYYYSMDYWGQGTTVTVSSGGGGSGGGGSGGGGSDIQLTQSPSSLSVSVGDRVTISCRASESVEYYVTSLMQWYQQKPGQAPKLLIFAASNVESGVPSRFSGSGSGTNFTLTISSVQEEDFAMYFCQQSRKVPYTFGGGTKLEIK |  | 95.8 | 96.1 |
| 4.8 (bispecific antibody, expressed from mRNA in T cells) scFv-G4S-scFv: QSALTQPPSASGSPGQSVTISCTGTSSDVGAYNFVSWYQQHPGNAPKLIIYDVRKRPSGIPDRFSASKSGNTASLTVSGLQADDEADYYCSSYAGNNNLVFGGGTKLTVLGGGGSGGGGSGGGGSQVQLVQSGAEVKKPGSSVKVSCKASGGTFSSYAISWVRQAPGQGLEWMGMINPSGGTTSYAQKFQGRVTMTRDTSTSTVYMELSSLRPEDTAVYYCARGFRMDQWGQGTLVTVSSGGGGSDIQLTQSPSSLSVSVGDRVTISCRASESVEYYVTSLMQWYQQKPGQAPKLLIFAASNVESGVPSRFSGSGSGTNFTLTISSVQEEDFAMYFCQQSRKVPYTFGGGTKLEIKGGGGSGGGGSGGGGSQVKLQESGPGLVKPSETLSITCTVSGFSLSDYGVHWVRQSPGKGLEWLGVIWAGGGTNYNSALMSRKTISKDNSKSQVFLKMSSLTAADTAVYYCARDKGYSYYYSMDYWGQGTTVTVSS |  | 88.5 | 90.2 |
| 8.6 (bispecific antibody, expressed from mRNA in T cells) scFv-G4S-scFv: QVQLVQSGAEVKKPGSSVKVSCKASGGTFSSYAISWVRQAPGQGLEWMGMINPSGGTTSYAQKFQGRVTMTRDTSTSTVYMELSSLRPEDTAVYYCARGFRMDQWGQGTLVTVSSGGGGSGGGGSGGGGSQSALTQPPSASGSPGQSVTISCTGTSSDVGAYNFVSWYQQHPGNAPKLIIYDVRKRPSGIPDRFSASKSGNTASLTVSGLQADDEADYYCSSYAGNNNLVFGGGTKLTVLGGGGSQVKLQQSGPGLVTPSQSLSITCTVSGFSLSDYGVHWVRQSPGQGLEWLGVIWAGGGTNYNSALMSRKSISKDNSKSQVFLKMNSLQADDTAVYYCARDKGYSYYYSMDYWGQGTTVTVSSGGGGSGGGGSGGGGSDIVLTQSPASLAVSLGQRATISCRASESVEYYVTSLMQWYQQKPGQPPKLLIFAASNVESGVPARFSGSGSGTNFSLNIHPVDEDDVAMYFCQQSRKVPYTFGGGTKLEIK |  | 98.3 | 98.6 |
